Reference: patent CN112961245A (CHONGQING PREC BIOTECH CO LTD, dated 2021)

T1: CD96 (on 293T-CD96 cells and on T cells) (human) (UniProt P40200)
T1 sequence (looked up): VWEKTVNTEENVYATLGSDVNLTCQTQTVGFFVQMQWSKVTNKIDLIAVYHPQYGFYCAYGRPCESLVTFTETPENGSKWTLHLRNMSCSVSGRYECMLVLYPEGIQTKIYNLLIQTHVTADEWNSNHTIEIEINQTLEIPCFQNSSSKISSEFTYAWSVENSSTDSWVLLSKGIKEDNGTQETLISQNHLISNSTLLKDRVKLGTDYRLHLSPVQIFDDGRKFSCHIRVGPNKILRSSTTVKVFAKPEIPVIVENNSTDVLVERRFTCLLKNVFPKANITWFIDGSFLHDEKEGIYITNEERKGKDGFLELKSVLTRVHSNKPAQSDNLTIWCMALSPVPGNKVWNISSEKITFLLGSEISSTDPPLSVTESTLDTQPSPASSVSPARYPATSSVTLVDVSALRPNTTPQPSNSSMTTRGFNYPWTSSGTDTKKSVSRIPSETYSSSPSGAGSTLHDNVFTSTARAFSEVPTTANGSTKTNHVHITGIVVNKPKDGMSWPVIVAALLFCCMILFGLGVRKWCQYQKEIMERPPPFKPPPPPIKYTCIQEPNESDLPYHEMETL

T2: CD96-His (human, UniProt P40200-2 22-503, limits assumed)
T2 construct: not shown: His tag
T2 sequence (looked up): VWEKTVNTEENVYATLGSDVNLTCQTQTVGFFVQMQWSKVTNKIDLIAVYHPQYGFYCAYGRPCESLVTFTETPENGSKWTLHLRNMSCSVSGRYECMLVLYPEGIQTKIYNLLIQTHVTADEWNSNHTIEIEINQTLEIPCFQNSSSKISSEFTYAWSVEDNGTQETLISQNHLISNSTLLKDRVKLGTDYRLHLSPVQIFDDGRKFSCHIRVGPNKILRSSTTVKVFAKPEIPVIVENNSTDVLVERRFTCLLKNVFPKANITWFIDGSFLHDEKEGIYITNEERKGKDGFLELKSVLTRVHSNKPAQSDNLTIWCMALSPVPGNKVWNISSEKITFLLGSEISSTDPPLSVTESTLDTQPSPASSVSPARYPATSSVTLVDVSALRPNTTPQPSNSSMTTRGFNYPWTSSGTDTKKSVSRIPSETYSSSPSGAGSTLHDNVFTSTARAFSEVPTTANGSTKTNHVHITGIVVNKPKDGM


Columns and labels:
[1] = target: T3, PD1 (on CHO-PD1 cells and on T cells) (human, UniProt Q15116 25-288); test: flow cytometry on CHO-PD1 cells
T3 construct: whole, on cells; also called PD1抗原分子

[2] = target: T1, CD96 (on 293T-CD96 cells and on T cells) (human); test: flow cytometry on 293T-CD96 cells, 1.25 μg antibody, FITC anti-IgG detection
[3] = target: T1, CD96 (on 293T-CD96 cells and on T cells) (human); test: flow cytometry on T cells at day 11 (CD96 expression 96.05%), FITC anti-IgG detection
[4] = target: T2, CD96-His; test: BLI (Fortebio), CD96-His antigen immobilised

T3 sequence (Q15116 25-288): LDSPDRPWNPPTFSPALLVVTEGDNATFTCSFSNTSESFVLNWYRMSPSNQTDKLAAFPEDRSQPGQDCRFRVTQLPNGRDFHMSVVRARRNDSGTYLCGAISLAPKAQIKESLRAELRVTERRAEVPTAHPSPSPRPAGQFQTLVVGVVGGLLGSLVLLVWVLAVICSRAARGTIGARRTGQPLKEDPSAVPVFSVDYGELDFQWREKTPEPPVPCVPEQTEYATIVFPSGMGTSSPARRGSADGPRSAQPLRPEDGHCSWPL

Row | binding result [1] | FITC-IgG的表达率 (percent positive cells) [2] [%] | FITC-IgG的表达 (percent positive cells) [3] [%] | Kd [4] [nM] | Binder
1 | binds | – | – | – | CD96 ScFv-Holes-PD1 ScFv-Knobes (bispecific antibody, human IgG4 S228P, Knob-into-hole heterodimer of two scFv-Fc chains) chain 1: DVVMTQTPLTLSVTIGQPASISCKSSQSLLDSDGKTYLNWLLQRPGESPKLLIYLVSKLDSGVPDRFTGSGSGTDFTLKISRVEAEDLGVYYCLQATHFPWTFGGGTKLEIKGSTSGSGKPGSGEGSTKGQVTLKESGPGILQPSQTLSLTCSFSGFSLDTFGMGVGWIRQSSGKGLEWLAHIWWDDDKFYNPALKSRLTVSKDTSKNQVFLKIANVDTADTATYYCAHYYGSLSFDVWGTGTTVTVSSESKYGPPCPPCPAPEFLGGPSVFLFPPKPKDTLMISRTPEVTCVVVDVSQEDPEVQFNWYVDGVEVHNAKTKPREEQFNSTYRVVSVLTVLHQDWLNGKEYKCKVSNKGLPSSIEKTISKAKGQPREPQVCTLPPSQEEMTKNQVSLSCAVKGFYPSDIAVEWESNGQPENNYKTTPPVLDSDGSFFLVSKLTVDKSRWQEGNVFSCSVMHEALHNHYTQKSLSLSLGK chain 2: EIVLTQSPATLSLSPGERATLSCRASQSVSSYLAWYQQKPGQAPRLLIYDASNRATGIPARFSGSGSGTDFTLTISSLEPEDFAVYYCQQSSNWPRTFGQGTKVEIKGSTSGSGKPGSGEGSTKGQVQLVESGGGVVQPGRSLRLDCKASGITFSNSGMHWVRQAPGKGLEWVAVIWYDGSKRYYADSVKGRFTISRDNSKNTLFLQMNSLRAEDTAVYYCATNDDYWGQGTLVTVSSESKYGPPCPPCPAPEFLGGPSVFLFPPKPKDTLMISRTPEVTCVVVDVSQEDPEVQFNWYVDGVEVHNAKTKPREEQFNSTYRVVSVLTVLHQDWLNGKEYKCKVSNKGLPSSIEKTISKAKGQPREPQVYTLPPCQEEMTKNQVSLWCLVKGFYPSDIAVEWESNGQPENNYKTTPPVLDSDGSFFLYSKLTVDKSRWQEGNVFSCSVMHEALHNHYTQKSLSLSLGK
2 | – | 86.7 | 96.1 | 30.8 | CD96 ScFv-Fc (scFv, Monospecific scFv-Fc control ('单抗'); also called CD96单抗; CD96抗体; not shown: Fc of the monospecific ScFv-Fc) DVVMTQTPLTLSVTIGQPASISCKSSQSLLDSDGKTYLNWLLQRPGESPKLLIYLVSKLDSGVPDRFTGSGSGTDFTLKISRVEAEDLGVYYCLQATHFPWTFGGGTKLEIKGSTSGSGKPGSGEGSTKGQVTLKESGPGILQPSQTLSLTCSFSGFSLDTFGMGVGWIRQSSGKGLEWLAHIWWDDDKFYNPALKSRLTVSKDTSKNQVFLKIANVDTADTATYYCAHYYGSLSFDVWGTGTTVTVSS
